Reference: patent US20080201790A1, “Method and product for regulating cell responsiveness to external signals” (priority 1993, published 2008)

T1: JNKK (Homo sapiens, UniProt P45985)
T1 sequence (P45985 1-399): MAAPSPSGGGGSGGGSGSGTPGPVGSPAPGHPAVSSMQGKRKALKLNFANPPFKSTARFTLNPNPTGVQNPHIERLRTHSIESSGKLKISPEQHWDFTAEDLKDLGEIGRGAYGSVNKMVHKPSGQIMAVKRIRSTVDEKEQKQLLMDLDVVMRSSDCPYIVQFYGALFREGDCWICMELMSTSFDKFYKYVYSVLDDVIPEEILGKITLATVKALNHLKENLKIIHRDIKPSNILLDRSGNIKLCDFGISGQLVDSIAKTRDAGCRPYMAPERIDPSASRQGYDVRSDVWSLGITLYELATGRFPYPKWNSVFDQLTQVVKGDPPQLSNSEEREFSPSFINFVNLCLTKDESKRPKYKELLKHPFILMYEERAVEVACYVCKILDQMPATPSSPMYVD

B1: MEKK 3: 626-amino acid MEK kinase protein, SEQ ID No. 10 (protein, listed as Mus musculus)
chain: MDEQEALDSIMKDLVALQMSRRTRLSGYETMKNKDTGHPNRQSDVRIKFEHNGERRIIAFSRPVRYEDVEHKVTTVFGQPLDLHYMNNELSILLKNQDDLDKAIDILDRSSSMKSLRILLLSQDRNHTSSSPHSGVSRQVRIKPSQSAGDINTIYQAPEPRSRHLSVSSQNPGRSSPPPGYVPERQQHIARQGSYTSINSEGEFIPETSEQCMLDPLSSAENSLSGSCQSLDRSADSPSFRKSQMSRARSFPDNRKECSDRETQLYDKGVKGGTYPRRYHVSVHHKDYNDGRRTFPRIRRHQGNLFTLVPSSRSLSTNGENMGVAVQYLDPRGRLRSADSENALTVQERNVPTKSPSAPINWRRGKLLGQGAFGRVYLCYDVDTGRELASKQVQFDPDSPETSKEVSALECEIQLLKNLQHERIVQYYGCLRDRAEKILTIFMEYMPGGSVKDQLKAYGALTESVTRKYTRQILEGMSYLHSNMIVHRDIKGANILRDSAGNVKLGDFGASKRLQTICMSGTGIRSVTGTPYWMSPEVISGEGYGRKADVWSLGCTVVEMLTEKPPWAEYEAMAAIFKIATQPTNPQLPSHISEHGRDFLRRIFVEARQRPSAEELLTHHFAQLVY
B2: MEKK 2: 619-amino acid MEK kinase protein, SEQ ID No. 6 / 8 (protein)
chain: MGYPYDVPDYASDDQQALNSIMQDLAVLHKPVGQHYLYKKPGKQNLHHQKNRMMFESNLNIEEEKRILQVTRPVKLEDLRSKSKIAFGQSMDLHYTNNELVIPLTTQDDLDKAVELLDRSIHMKSLKILLVVNGSTQATNLEPSPSPEDLNNTPLGAERKKRLSVVGPPNRDRSSPPPGYIPDILHQIARNGSFTSINSEGEFIPESMDQMLDPLSLSSPENSGSGSCPSLDSPLDGESYPKSRMPRAQSYPDNHQEFTDYDNPIFEKFGKGGTYPRRYHVSYHHQEYNDGRKTFPRARRTQGTSFRSPVSFSPTDHSLSTSSGSSVFTPEYDDSRIRRRGSDIDNPTLTVTDISPPSRSPRAPTNWRLGKLLGQGAFGRVYLCYDVDTGRELAVKQVQFNPESPETSKEVNALECEIQLLKNLLHERIVQYYGCLRDPQEKTLSIFMELSPGGSIKDQLKAYGALTENVTRKYTRQILEGVHYLHSNMIVHRDIKGANILRDSTGNIKLGDFGASKRLQTICLSGTGMKSVTGTPYWMSPEVISGEGYGRKADIWSVACTVVEMLTEKPPWAEFEAMAAIFKIATQPTNPKLPPHVSDYTRDFLKRIFVEAKLRPSAEELLRHMFVHYH

How the values were obtained:
c-Jun kinase (JNK) = test: JNK activity in HEK293 cells transfected with MEKK 2 or 3; assay type: cell-based; conditions: for selectivity in activating JNK versus p42/44 MAPK: plasmid DNAs titrated over a range of concentrations; for c-Jun kinase (JNK) activity: transient expression in HEK293 cells
Procedure: JNK activity was measured using GSTc-Jun1-79) coupled to glutathione Sepharose 4B. Cells transfected with MEKK2 or 3 and control transfected cells were lysed in 0.5% Nonidet P-40, 20 mM Tris HCl, pH 7.6, 0.25 M NaCl, 3 mM EDTA, 3 mM EGTA, 1 mM dithiothreitol, 1 mM PMSFm 2 mM sodium vanadate, 20 ug/ml aprotinin, and 5 ug/ml leupeptin. Nuclei were removed by centrifugation at 15,000×g for 10 min and the supernatants (25 ug of protein) were mixed with 10 ul of a slurry of GST c-Jun(1-79) Sepharos (3-5 ug of GST cJun(1-79). The mixture was rotated at 4° C. for 1 h, washed twice in lysis buffer and once in kinase buffer (20 mM Hepes, pH 7.5, 10 mM MgCl2, 20 mM β-glycerophosphate, 10 mM p-nitrophenyl phosphate, 1 mM dithiothreitol, 50 uM sodium vanadate). Beads were suspended in 40 ul of kinase assay buffer containing 10 uCi of [γ32P]ATP and incubated at 30° C. for 20 min. Reaction mixtures were added to Laemmli sample buffer, boiled, and phosphorylated proteins were resolved on SDS-10% polyacrylamide gels. The JNK activity also eluted early from a Mono Q column using a linear sodium chloride elution gradient. […] When JNK activity was assayed following fractionation by Mono Q ion exchange chromatography, 50 ul of each fraction was incubated with the GST cJun(1-79) beads.

p42/44 MAPK = p42/44 MAPK activity in HEK293 cells transfected with MEKK 2 or 3; assay type: cell-based; conditions: transient expression in HEK293 cells
Procedure: MAPK activity following Mono Q FPLC fractionation was measured using the epidermal growth factor receptor […] peptide as a selective p42/44 MAPK substrate. Alternatively, for cells transfected with varying amounts of MEKK plasmids, MAPK activity was assayed after elution from DEAE Sephacel columns. […] Thus, even though the kinase domains are approximately 94% conserved, MEKK 2 and 3 differ in their selectivity for regulation of the JNK and p42/44^MAPK pathways. This was particularly evident for MEKK 3 at low plasmid concentrations where the p42/44^MAPK pathway was preferentially activated.

p38 = p38 kinase activity in HEK293 cells transfected with MEKK 2 or 3; assay type: cell-based; conditions: immunoprecipitation and in vitro kinase assay
Procedure: The p38 kinase is activated by hyperosmotic conditions and recognizes the transcription factor ATF 2 as an in vitro substrate. Sorbitol treated (0.4M, 20 min) or control HEK293 cells were lysed in the same buffer as that used for immunoprecipitation of p38 using rabbit antiserum raised against the COOH terminal peptide sequence of p38. Immunoprecipitates were washed once in lysis buffer, once in assay buffer (25 mM Hepes, pH 7.4, 25 mM β-glycerophosphate, 25 mM […], 2 mM dithiothreitol, 0.1 mM sodium vanadate) resuspended, and used in an in vitro kinase assay with a recombinant NH2-terminal fragment of ATF 2 (20-50 ng). For analysis of p38 kinase activity from Mono Q FPLC fractions, 20 ul aliquots were mixed with kinase buffer containing 20-50 ng of recombinant ATF 2 and 10 uCi of [γ32P]PATP. Reactions were quenched in Laemmli sample buffer, boiled, and proteins were resolved using SDS 10% PAGE. […] Mono Q FPLC fractionation of lysates from MEKK 2 or 3 transfected HEK293 cells confirmed that p38 kinase activity was similar to that from control transfected cells. ATF 2 is also a substrate for JNK. Fractions 2-8 from cells transfected with MEKK 2 or 3, that contain immunoreactive JNK, have increased kinase activity toward ATF 2. This is a predicted result based on the ability of both MEKK 2 and 3 to stimulate JNK activity in HEK293 cells. […]

MEK 1 = target: T2, MEK 1 (Mus musculus, UniProt P31938); test: In vitro kinase assay of immunoprecipitated HA-tagged MEKK with recombinant MEK1; assay type: biochemical; conditions: 12CA5 immunoprecipitates
T2 construct: polyhistidine (N); made in house; host or cells: pRSETA vector
Procedure: (§1) MEKK 2 Phosphorylates Both MEK 1 and JNK Kinase in Vitro. HEK293 cells expressing MEKK 2 and 3 were lysed in !% Triton x-100, 0.5% Nonidet P-40, 20 mM Tris HCL, pH 7.5, 150 mM NaCl, 20 mM NaF, 0.2 mM sodium vanadate, 1 mM EDTA, […], 1 mM EGTA, 5 mM PMSF. Nuclei were removed by centrifugation at 15,000×g for 5 min. HA epitope-tagged MEKK2 and 3 were immunoprecipitated with the 12CA5 antibody recognizing the HA epitope-tag. The immunoprecipitates were washed twice in lysis buffer, twice in PAN (10 mM Pipes, pH 7.0, 100 mM NaCl, 20 ug/ml aprotinin), suspended in 20 mM Pipes, 10 mM MnCl2, 20 ug/ml aprotinin, and used in an in vitro kinase assay with 20-50 ng of recombinant MEK1 or JNKK as substrates and 20 uCi of [γ^32P]ATP. Reactions were terminated by the addition of Laemmli sample buffer, boiled, and proteins were resolved by SDS-10% PAGE.

JNKK = target: T1, JNKK; test: In vitro kinase assay of immunoprecipitated HA-tagged MEKK with recombinant JNKK; assay type: biochemical; conditions: 12CA5 immunoprecipitates
Procedure: as §1
Incubations were for 30 min at 30° C. in the presence of 50 uM ATP. GST-cJun (1-79) Sepharose beads were then added, and the mixture was rotated at 4° C. for 30 min. The beads were washed, suspended in 40 ul of c-Jun kinase assay buffer containing 20 uCi of [γ32P]ATP, and incubated for 15 min at 30° C. Reaction mixtures were added to Laemmli sample buffer, boiled, and phosphorylated proteins were resolved on SDS 10% PAGE.

p38 MAPK = test: Tyrosine phosphorylation of p38 MAPK in COS cells transfected with MEKK 1 or MEKK 3; assay type: cell-based; conditions: forty-eight hours after transfection
Procedure: (§2) COS cells were transfected with the expression plasmid pCVM5 ligated to cDNA clones encoding either MEKK 1 or MEKK 3 protein, or a control pCVM5 plasmid lacking MEKK cDNA inserts. Forty-eight hours after transfection, the COS cells were lysed and the lysate fractionated on a Mono Q FPLC column using conditions described in Example 4. The fractions were analyzed for tyrosine phosphorylation of MAP kinase-like enzymes using the kinase assay described in Example 4.

[1] = test system: p42 and p44 forms of MAPK; test: Phosphorylation of p42 and p44 MAPK in COS cells transfected with MEKK 1 or MEKK 3; assay type: cell-based; conditions: forty-eight hours after transfection
Procedure: as §2

c-Jun kinase = c-Jun kinase activation in transfected COS cells; assay type: cell-based; conditions: expression in COS cells, FIG. 22
Source text: COS cells were transfected with pCMV5 expression plasmid encoding no cDNA insert (control), full length MEKK4 or the truncated MEKK4 encoding only the catalytic kinase domain.

Molecule	selectivity in activating JNK versus p42/44 MAPK (c-Jun kinase (JNK))	c-Jun kinase (JNK) activity (c-Jun kinase (JNK))	p42/44 MAPK activity (p42/44 MAPK)	p38 kinase activity (p38)	phosphorylation of MEK 1 in vitro (MEK 1)	phosphorylation of JNKK in vitro (JNKK)	phosphorylation of p38 MAPK (p38 MAPK)	phosphorylation of p42 and p44 MAPK [1]	activation of the c-Jun kinase pathway (c-Jun kinase)
B1	greater selectivity for activating p42/44 MAPK relative to JNK	stimulation of c-Jun kinase (JNK) activity	stimulated p42/44^MAPK activity	neither MEKK 2 nor MEKK 3 stimulated p38 kinase activity	did not show measurable kinase activity toward MEK 1 or JNKK	did not show measurable kinase activity toward MEK 1 or JNKK	induces tyrosine phosphorylation of p38 MAPK	induces tyrosine phosphorylation	also activate the c-Jun kinase pathway
B2	greater selectivity for stimulation of the JNK pathway	stimulation of c-Jun kinase (JNK) activity	stimulated p42/44^MAPK activity	neither MEKK 2 nor MEKK 3 stimulated p38 kinase activity	clearly phosphorylates both MEK 1 and JNKK	clearly phosphorylates both MEK 1 and JNKK	–	–	also activate the c-Jun kinase pathway
